Source: a protein production outcome set (Wang et al. 2014)

test: label from the status in PepcDB records
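Also: failed if final PepcDB status was selected cloned or expressed and not failed if soluble or beyond.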

**Q.** With “MDRTQFTKIFTRYYMRSTSLGIIFTLFACAIRGVNLVVYLPYVLSASTCFTYLWASRTFTLEQKHQSVVIALILGYTLTFYLYFFLGGHFLFSSLVTINLLLTMVEFGVFWSFFTYALSMTFCFYIDLITAGNDPFKLHALKEFFIQSTFLFLFNLFIYKGLRSIECYWHGIWQKQYEQVEKLERLLEIDELTGCYSRFKGNQLIEQQIQRAQPFTLLYIDLDGFKAVNDEFGHDAGDKVLQITAQRILHLLDDGQFATRIGGDEFILCLPNIEDTKELEQFQSLLHHACSAPIFIHFQNVHIGLSVGMARFPHEGSCSDSLIQHADQMMYLTKRSRT” as the sequence, how does the protein production read?
**A.** failed

**Q.** With “MDSEGFSPSIYTDKTGHPTIGYGYNLSVYSYEGKRITKTYGLLTDILSYGWYKNLDAMRRMVILDLSYNLGLNGLLKFKQFIKAIEDKNYALAVERLQKSPYFNQVKKERQGIWKF” as the sequence, how does the protein production read?
**A.** failed

**Q.** With “MDSENAVKTTYGEFNGKKPFAVMLLGTDTGALDRTEKRGNTDTIIVVVVNPKKKNYTMISIPRDTMADMVGDDSNDVQKINAAYSIGGAKMAMKTVSNLLNIPVKYYALVNMGGLMKLVDYVGGIYVTPPLTFTYSGFPFKKRVRQHLNGQAALAYSRMRYDDPQGDYGRQKRQREVITKLVQKLATADSLTNFSKIANNLSSNVKTNLSFQALKSILANYSDCTSSSDSDYLHGYSTYVNDAAYQIAPTSELQRISNKIRKLLGLKTATVSNRETELNTLNETAGFKFGSGETQNYTLEHHHHHH” as the sequence, how does the protein production read?
**A.** failed

**Q.** Which protein production does the source give for “MDSGFTLRAPRNDKRRNPMPAILGTGEHRYRVVENFAKLPDGWQLTDVAAVAVDSLDRVYVFNRGAHPMVVLDREGNFLRSWGEGLFSRAHGLHIDADDNLYCTDDGDHTVRKCTSDGKVLLTIGIPAKPAPFMSGEPFHRCTHTALSPKGEIYVSDGYGNARVHKFTPDGKLIKSWGEPGTDPGQFNIVHNIATDSDGWVYVADRENHRVQVFNGEGKYETQWNNLHRPCALCCCGGRSPTFVIGELGPGLDINRNVPNLGPRLSIVDAKGNRIARLGGEEGPGVASGKFLAPHGIALDSKGDIYVGEVGVTNWATSFPDQEMPAVVRATRCLQKLERVRE” here?
**A.** failed

**Q.** Which protein production does the source give for “MDSGTINIKKWVVIYPVYINSKKTVAEGRRISVSKSCENPNCIEISDCCKHLKLPSAVEIDKAYPRDFMQVGRVRVQLKREDGTLLNPAITSRKHLMQKIAELVPRHPERVKKQEAQKAKKQEPQATTSTSGTSSKSGKGGKKKR” here?
**A.** failed

**Q.** For “MDSIKGVFTGNKDTPLEESNLPVEAFTLLRFADELKNARRLGKFKQYIVGRSSEATFADAFEKQEAVIRYLGALDATGENLQASQKQDAAKHCKCTITDVENTLSKFTWARQAHKKMTELKEGGKPLPKNMGEVFFSLCILICFFSSISSYV”, which protein production is on record?
**A.** failed

**Q.** Which protein production does the source give for “MDSNWINCPSVFSSSSSSSRRCQSRSDLYLGGGYEDLEGEDDLKAEFICPFCAEDFDIVGLCCHIDEEHPVEAKNGVCPVCTKRNLCLFLDERFYVQRRRRLRRGGYSSTYLALKKELREANLQSLLGGSSSFTSSTNIDSDPLLSSFMFNSPSVNQSANKSATPVTVGNAATKVSIKESLKRDIQEAPLSGEDQEKAKKSEFVRGLLLSTMLEDDF” here?
**A.** failed

**Q.** With “MDSPKRGGPRVRPSFVFCTRTCFPTPPDRMSDSESADPHSPSPTGDGQDTEPRDADGHEVARRGDTEAMEGLLEQGMDPNHTNEHGHSLLMIAAYSDQPEMADLLIEHGADPNRSDPSGSTPLMGCCFKGLAEAAEVLIEAGADVNATGARGATALMYAATYGESALVDLLLEHGADPTTTNEQGQTAAEQAAAEGHEEIAERLRQATAGA” as the sequence, how does the protein production read?
**A.** failed

**Q.** Which protein production does the source give for “MDSRAAAEPIPHVSPSPFPNPSAVNQTLEERLGLDLVQVYDWDWWGTLVQSGESLLLILSTLWCILLARVVCQKLRLHGSADLCYATEFLLVILPCILLVSVAVDYSGYIGLLMLVATLWFLRTSRALERARTRVQFDLGGNRPMCLSILRALTHLITAVCILAIDFGSFYRPYRKSRQFGAKLMDTGIGLFVFTMAMVSRRTRHWSDLRRSVIYSALPLILLGLARTVSILTLSYGQDAHEYGQHLNAFFTLGFTKFLGSLVSILARKDLHLLPLGFGLLVIHQFGLSVLGISDYVMNEDVERSSFLNANREGLVSLPGFVGLFLLSIYVNRWMVAKSLLTYSEFVRKLRRLFYLVLILWTSFVISAYEIGISRVTCNLGYVIWMLAIGSTTLCASFGAIDFAINSVMPWDPNPWEDHEKGLLSGEAVVKKRGGSVVPFTISQALNKNGLTFFLVANILTGMVNIFLRPEDRSHSESVIILLVYMFLATKLVHELLKRGIRLA” here?
**A.** failed

**Q.** With “MDSSDSHVGQDVYVDQGLGEPDRLERLWAPYRMSYINTRSGGKQSTTAKRDPFIEVPKMSDEDGLIVARGELVYCVLNLYPYNAGHMMVIPFRKEKNLEDLSLAESAELMLFTQTAIKALKQVSNPDAVNVGLNLGKASGGSVGDHLHVHVVPRWSGDANFMTVIDGVKVLPQTLRQTRAMLAQAWGTIDGAPGTVDPTLTSAIRTAAPKEH” as the sequence, how does the protein production read?
**A.** failed

**Q.** Which protein production does the source give for “MDSVELCLPESFSLHYEEELLCRMSNKDRHIDSSCSSFIKTEPSSPASLTDSVNHHSPGGSSDASGSYSSTMNGHQNGLDSPPLYPSAPILGGSGPVRKLYDDCSSTIVEDPQTKCEYMLNSMPKRLCLVCGDIASGYHYGVASCEACKAFFKRTIQGNIEYSCPATNECEITKRRRKSCQACRFMKCLKVGMLKEGVRLDRVRGGRQKYKRRIDAENSPYLNPQLVQPAKKPYNKIVSHLLVAEPEKIYAMPDPTVPDSDIKALTTLCDLADRELVVIIGWAKHIPGFSTLSLADQMSLLQSAWMEILILGVVYRSLSFEDELVYADDYIMDEDQSKLAGLLDLNNAILQLVKKYKSMKLEKEEFVTLKAIALANSDSMHIEDVEAVQKLQDVLHEALQDYEAGQHMEDPRRAGKMLMTLPLLRQTSTKAVQHFYNIKLEGKVPMHKLFLEMLEAKV” here?
**A.** not failed

**Q.** For “MDTAVNESLSISYNLEQFLIVLSVSLSIATLSKTVPILRKIPYTLLLVIVGMALAFVDVKLINLSPELIMEIFLPPLLFEAAWNLQWRNLKENWFPITLFATLGVVICVVGIAFPLSYWGGMELAIAFLAAAALSATDPVSVIALFKELGASKKLNTLMEGESLFNDGVAVVVFLILVGIPLGTSTFDLSVTLARFVTVIGIGVGCGLVIGFSLSLLTQRFDLPFVEQSLTLVSAYGAYILAENLGGSGVIGVVVVGMVLGNYGSRIGMNPRTRLIVSIFWEFVAFFVNSIIFLLIGDQIGLSSLSDHLNLILIAIAAVVVTRLVSVFGLSLISNKVSDQISSTHITLQEQTVLWWGGLRGSVAIAVALSVPQAIAERQAIIDIVFGVVLFTLLVQGLTTQFVLKGLDLIGDQPQRLEYAELVSRQIALRRVLAELEKTDEFPDINPERLRYKQELVQGQLQSVTDKLKLLLQEYPLLQEVANKKFDQTVLDIEAETYADLIRMGRLEENIMPLLVTLEGENVAEPS”, which protein production is on record?
**A.** failed

**Q.** Which protein production does the source give for “MDTEIHNPHIPGGRPPSRPAIAALTFVIFMSLTLASWSVVQDLQERHENTRFDKRVAEVIHKIEHHFSGYEQVLKGALGHLLASPSVSRNEWRTYVNALRINDRYPGIHGIGFAKYIPRSGLAAHTEEVRAEGFPSYKVWPGTPRQEYTSIIYLEPFTGSNLRAFGYDMFSNAVRRAAMSRARDTGEVALTRKVKLVQETGEDIQAGVLMYLPYYGAANLPKTVEERRASLGGYVYAPFRMVDFVRATLGSELDILDLRIFDGKAMAEDSLLFDSVKHRSGPSPVPKFKRVIPISLYGQTWALEASSRPAFEKAIKNYEALLVLLGGFVVSMLTAMVSFVLSGNKEKAAALGHVNKKLLLAMEEQQATTRELSNAKLRTERILESITDAFYTLDREWRFTYVNKEAENLLQRNREDLLGRVCWEEFKETAGTTFDREYHRALMENRTVTFEEFYVPLDEWFEVHAYPSEEGLTVYFRDITERKESEQARQEAHVRIRQQASLLDKATDAIIVFGMDNCIEFWNQGAERLYGWTSEEVMGREVEMLYDNVAVFDEANRALLSSGEWRGELAQRRRDQSMLNVEAHWTLVRNDDGEPQAIFAINTDITQRKSAENEILHLALYDSLTGLPNRRLLLDRLGHALAVSARNQRMGALLFIDLDNFKLLNDTLGHDMGDLLLRQVAPRLSSCVRESDTVARLGGDEFVVILMGDFGEDHDEALTQISTICERIRSAFIQPFNLDPYIHHITPSIGIALFNDQSQTTNELLKRADLAMYQAKASGRNAMRFFDPDMQAAMNARAILESELYKSWERNEFILHYQLQVDSRGIIGAEALVRWQHPRRGLLPPSEFIPQAEETGLILPLGEWVLETACNQLASWALQPETVQLNLSVNVSSLQFCQPDFVEQVISILDRTGANPQRLKLELTESILVHDMDDTIAKMMTLKARGVGFALDDFGIGYSSLYYLKRLPLDWVKIDRSFVRDVLTDNNDATIVRTILLLAKSMGLAVIAEGVETGAQKDFLASHGCTAYQGYLFSRPLPLEQFERFVQPAAGGAV” here?
**A.** failed

**Q.** Which protein production does the source give for “MDTKKIKTSCLINNYNYAAFLSEAVASTLRQTVKFDEIIIVDDASTDNSAEVIAKFAQQADIKYILKEKNQGQLSSFNEAFLNASGDIIFFLDADDAYEPEYLETVLNFYNRRSECDFVFCAYKKFGAVEGTFQDYEIDVDLGYSVIRTLCNGEWIGSITSTLSMRRDILRKVLPIPNTEDWRVRADDCLVWGASLVGAKKFYLSQPLVRYRIHQNNQFHNSKFVNTDKDYEYKRFWKRNSLFNYILQKNNLELPFLLAFTSLNELKTIPCPNNQDFISYLKIIFLFEKNVYWKIKGIFLLFNYLGKFLLNGKLQIR” here?
**A.** failed

**Q.** Which protein production does the source give for “MDTLPHHLLDEILFRIDHRSLAMIQCTNRSLQSHISKTPNFASEYFSRIRSSLLYIATHGCPLICYHLYGDSRSPRTVETLTQCHILGYCSGLLLLFLNKNLCVANPLTKKFRFLNHSRSKFFPTDFTLRGGRQQVIGFAVDQTDRTTPSFKIVNIKEGAVHWLRNDGSIVAFNLKTEKARLIPIRFPKELCLKTLFTAVDNNLTLISATEEVIYVYAFHNILSDPKWVLVKQIRNGVLDEKRLYSWYVEAYDGKSLVLRETILKKDYYNKHLKQVLHGYDLRANKWEVIGSIPEWSPSGLDFYQFTPSPSSVIGLDDKEGEEILACDDKRIPSVNAIMRLIYGIS” here?
**A.** failed

**Q.** For “MDTNYKMLYEKYEKLKNEFSTYQNFAETQIQRMNGKNTELEKKLDILTNVIEVSKYINSNISDDNLVPMINDMIIGILGVTYSTIYLVEDDEKLIVKASNVMDNYDIIVNPVFSTFSDNRPIVINSKEPLFKEFKNKLKVHSIIGVPITLRDNFRGYIIVEHTLYDFFSHGHIKFISSIANQIAIAIENSFLYKKVKESSIKDPFLGIYNRKHFFDMIEGKVAKDSRRSFAIVMLDIDHFKSFNDSYGHQFGDEVLIQTAKILEQSIGEKDEVARYGGEEIVLYLNDAQSKEKVFKTVDGIRASLSNNSVRHGGIEKRVTASFGISYYPQNGETVEKVVSVADAMLYEAKNSGRNKVVSSL”, which protein production is on record?
**A.** failed

**Q.** Which protein production does the source give for “MDTQNLPDQIIPIFMSFDKNYALGASVSLYSLLSHASRHTSMIDFSPLNQSNKLLGANIVYKIHCLVKGVTLEQQNKLLKTIAPFKKFASLEFIHINSLDHSIESYLNKSCSKRYGGLLVLCRLLLASLFPNYSKIISIDADTVFLGDVASAYFALDNDPTKSLGMVRDTFSHLSFEAFCDFCKRACKNFKIDFSRFSPDELKRIHQGFNMGFLVAHLDRWRQDGFEKTALEFLKTRGKDLFYPEQCLVNMVFWERILELPIYYNCYSDFFKEHYPKNIIMLHFIKYKPWRSVSSLNGRLICYEAEASFWLANLFHTPFKNDFFKERLEMAKDQQMQSFKTHIRSQTIRNYLGFRVKNILKKVFKLSLEHHHHHH” here?
**A.** not failed

**Q.** With “MDTQTLNSDLRVFMHHIYEFEKGVRSMVLATLANDDIPYAEERLRSRQIPYFAQPTPNTERTNLFFGCKECMEAIRLFVSGRSLNSLTPEEDFIIGAMLGYDICRQCERYCRRKSNS” as the sequence, how does the protein production read?
**A.** not failed

**Q.** For “MDTVILITVIIVIVGLAFDFINGFHDIANAVATSISTRALKPRVAIGIAAVMNFLGAISFTGVAESLTKSIVDPFSLNNGEFVVLCGLIAAVIWNLMTWLVGMPSSSSHALIGAIAGASIASASSFSVLNWSGFTTIIIALIISPIIGFTVGYLIYSLFKHLFHDKKLGKMNRRFRFIQIGTAAAQAYSHGTNDAQKTMGIITLALVASGLLKESAGIPFWVQVSCAASMAIGSSVGGYRIIKTVGTKIMKITPVTGVASDLSSLSVIMTATLIHLPVSTTQVIDSSIMGVGTANHKKEVNWRTGKNMVVTWFITLPLAGLLAAVVYWISAAIFL”, which protein production is on record?
**A.** failed
